Laboratory results as given in patent US9938354B2, “Lin28-mediated control of let-7 biogenesis” (Children's Medical Center Corporation, priority 2011, dated 2018).

What was measured:
TUTase = molecular target: T1, TUTase (Homo sapiens, UniProt Q5TAX3); assay: In vitro TUTase activity (uridylation) assay; type: biochemical; details: chain terminator; prevents oligo-U tail elongation
T1 construct: Flag; made in house; host or cells: HEK293 / HEK293T cells (transient transfection, anti-Flag M2 purification)
Protocol: In vitro TUTase assays can be employed also. Some of the hit compounds may influence Lin28A-TUTase activity independent of altered expression levels. […] For in vitro uridylation assays, synthetic pre-let-7 RNA is incubated with the affinity-purified proteins in the presence of [α-^32P]-UTP.
A pilot screen is performed on the in vitro assay, using a chemical library that contains a collection of nucleotide analogs. The catalytic activity of the TUTase is inhibited by certain nucleotide analogs, and that the identification of these compounds through HTS will lead to their utility as a novel chemotherapeutic in Lin28A-expressing cancers. There are readily available libraries of such compounds; similar compounds have already been applied in the clinic. […] Then, putative hits from this primary screen are evaluated through secondary screens that include dose curves, in vitro TUTase activity assays, and analyses of let-7 expression by q.RT-PCR on compound-treated cells. […]
Purified proteins were incubated with 4 pmol of unlabelled synthetic RNA (Dharmacon) for 1 hour at 37° C. in a 30 μl reaction mixture containing 100 mM KCl, 20 mM Tris-HCl pH 7.6, 10% Glycerol, 125 nM [α-^32P]UTP, 3.2 mM MgCl2, 40 U RNasin ribonuclease inhibitor (Promega). Products were resolved on 15% denaturing polyacrylamide gels and bands were detected by autoradiography.

pri-let-7g = assay: EMSA of recombinant Lin28A and Lin28B with pri-let-7g; type: binding; details: in vitro transcribed uniformly labeled pri-let-7g
Protocol: (§1) Furthermore, Lin28B directly binds and sequesters pri-let-7. To further dissect the mechanism of the Lin28B-mediated let-7 processing block, the relative abilities of recombinant human Lin28A and Lin28B proteins to bind pre-let-7 were compared. (FIG. 7A, 7B and FIG. 8). EMSA was performed with pre-let-7g to analyze the relative binding affinities of the two recombinant proteins. Lin28A and Lin28B have apparent Kds of approximately 0.6 nM and 0.5 nM, respectively (FIG. 7B). Both these estimated Kds are much lower than a previously reported for recombinant mouse Lin28A. This difference is likely due to the omission here of nonspecific yeast tRNA competitor used previously in the binding buffer. Piskounova et al., 2008. […] Collectively, these assays reveal that both Lin28 proteins can directly bind to let-7 precursors with high-affinity in vitro.
(§2) Transformed BL21-CodonPlus® Competent bacteria (Stratagene) were grown to an OD600 nm of 0.4-0.6. […] Band intensities of scanned gels were quantified using ImageJ software and used to calculate percentage of probe bound. […] […] Percent active protein was determined using stoichiometric binding reactions as described in Ryder et al. (2008) Hills equation for specific binding with one site, Y=Bmax*X^h= […]

pre-let-7g = assay: EMSA of recombinant Lin28A and Lin28B with pre-let-7g; type: binding; details: 0.5 nM 5′-end labeled pre-let-7g, without competitor yeast tRNA, estimated, read-out: apparent Kd
Protocol: as §1, §2

T1 sequence (Q5TAX3 whole entry): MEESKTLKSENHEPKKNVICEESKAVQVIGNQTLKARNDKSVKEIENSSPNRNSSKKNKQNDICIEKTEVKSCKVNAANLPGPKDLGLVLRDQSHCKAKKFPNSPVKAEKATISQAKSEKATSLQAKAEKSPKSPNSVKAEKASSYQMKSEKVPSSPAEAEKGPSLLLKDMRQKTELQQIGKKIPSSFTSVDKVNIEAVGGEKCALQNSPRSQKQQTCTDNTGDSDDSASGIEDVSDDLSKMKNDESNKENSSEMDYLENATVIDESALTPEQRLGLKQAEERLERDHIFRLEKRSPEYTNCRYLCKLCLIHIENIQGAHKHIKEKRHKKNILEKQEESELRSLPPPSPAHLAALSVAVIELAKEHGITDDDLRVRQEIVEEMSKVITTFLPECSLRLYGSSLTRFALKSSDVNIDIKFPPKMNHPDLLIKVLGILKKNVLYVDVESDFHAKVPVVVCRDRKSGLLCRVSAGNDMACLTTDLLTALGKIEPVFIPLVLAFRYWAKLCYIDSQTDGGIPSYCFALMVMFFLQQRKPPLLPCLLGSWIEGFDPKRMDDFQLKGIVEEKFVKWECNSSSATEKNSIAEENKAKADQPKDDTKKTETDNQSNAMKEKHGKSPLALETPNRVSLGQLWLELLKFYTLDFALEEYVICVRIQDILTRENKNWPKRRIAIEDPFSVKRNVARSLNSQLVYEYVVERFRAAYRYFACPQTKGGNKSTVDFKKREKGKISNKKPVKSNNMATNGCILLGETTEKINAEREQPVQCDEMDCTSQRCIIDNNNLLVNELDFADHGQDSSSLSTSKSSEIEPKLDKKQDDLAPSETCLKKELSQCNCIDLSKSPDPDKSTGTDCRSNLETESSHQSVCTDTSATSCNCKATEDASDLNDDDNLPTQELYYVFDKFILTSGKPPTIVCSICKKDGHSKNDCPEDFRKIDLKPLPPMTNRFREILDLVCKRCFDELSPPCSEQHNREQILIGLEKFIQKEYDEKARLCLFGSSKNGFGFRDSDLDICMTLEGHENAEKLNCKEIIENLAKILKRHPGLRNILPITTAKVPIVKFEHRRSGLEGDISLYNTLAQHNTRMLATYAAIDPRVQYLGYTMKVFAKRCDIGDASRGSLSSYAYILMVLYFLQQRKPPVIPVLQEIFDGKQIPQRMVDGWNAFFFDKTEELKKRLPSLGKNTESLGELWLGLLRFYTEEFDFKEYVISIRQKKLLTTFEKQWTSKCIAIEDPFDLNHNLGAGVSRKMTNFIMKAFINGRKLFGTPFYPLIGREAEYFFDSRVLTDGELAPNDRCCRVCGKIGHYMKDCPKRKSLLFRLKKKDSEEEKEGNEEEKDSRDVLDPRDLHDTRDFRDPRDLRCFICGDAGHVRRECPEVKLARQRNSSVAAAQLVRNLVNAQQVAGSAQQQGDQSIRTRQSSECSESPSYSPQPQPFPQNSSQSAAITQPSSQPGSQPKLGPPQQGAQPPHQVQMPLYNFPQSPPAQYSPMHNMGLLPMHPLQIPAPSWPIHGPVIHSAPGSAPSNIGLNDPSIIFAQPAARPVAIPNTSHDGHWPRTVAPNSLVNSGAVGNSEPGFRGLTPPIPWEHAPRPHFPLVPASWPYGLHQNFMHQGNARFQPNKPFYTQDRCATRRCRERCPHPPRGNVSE

Molecule | TUTase activity in vitro (TUTase) | binding to pri-let-7g (pri-let-7g) | Kd (pre-let-7g)
O=c1ccn([C@H]2CC[C@@H](COP(=O)(O)OP(=O)(O)OP(=O)(O)O)O2)c(=O)[nH]1 [2′,3′-dideoxy-UTP] | effectively inhibits TUTase activity in vitro |  | 
Lin28B: purified recombinant human His-tagged Lin28B RNA-binding protein (protein, left off: small tags and cut ends) MAEGGASKGGGEEPGKLPEPAEEESQVLRGTGHCKWFNVRMGFGFISMINREGSPLDIPVDVFVHQSKLFMEGFRSLKEGEPVEFTFKKSSKGLESIRVTGPGGSPCLGSERRPKGKTLQKRKPKGDRCYNCGGLDHHAKECSLPPQPKKCHYCQSIMHMVANCPHKNVAQPPASSQGRQEAESQPCTSTLPREVGGGHGCTSPPFPQEARAEISERSGRSPQEASSTKSSIAPEEQSKKGPSVQKRKKT |  | able to bind pri-let-7g with similar affinities | ~0.5 nM
Lin28A: purified recombinant human His-tagged Lin28A RNA-binding protein (protein, UniProt Q9H9Z2 2-209, looked up, His tag) Protein lin-28 homolog A: GSVSNQQFAGGCAKAAEEAPEEAPEDAARAADEPQLLHGAGICKWFNVRMGFGFLSMTARAGVALDPPVDVFVHQSKLHMEGFRSLKEGEAVEFTFKKSAKGLESIRVTGPGGVFCIGSERRPKGKSMQKRRSKGDRCYNCGGLDHHAKECKLPPQPKKCHFCQSISHMVASCPLKAQQGPSAQGKPTYFREEEEEIHSPTLLPEAQN |  | able to bind pri-let-7g with similar affinities | ~0.6 nM
